Article PMC12612594, “Nuclear Magnetic Resonance‐based fragment screen of the E3 ligase Fem‐1 homolog B” (Protein Science : A Publication of the Protein Society, 2025)
Changes are numbered by the printed parent chain. Names and notes keep the numbering of the source. Values joined by “and” are separate entries in the source; they are usually repeats but may differ in a detail not shown here. Equal values may be shown once.

B1: FEM1B‐11: FEM1B construct, mutations L4E, L18E, A21E, L25S, Y84A, I270N, L281E, R321D (protein, UniProt Q9UK73 1-627, looked up, variant L4E L18E A21E L25S Y84A I270N L281E R321D)
Protein fem-1 homolog B: MEGEAGYVYKAASEGKVETLEALLSNRSESDIRYLLGYVSQQGGQRSTPLIIAARNGHAKVVRLLLEHYRVQTQQTGTVRFDGAVIDGATALWCAAGAGHFEVVKLLVSHGANVNHTTVTNSTPLRAACFDGRLDIVKYLVENNANISIANKYDNTCLMIAAYKGHTDVVRYLLEQRADPNAKAHCGATALHFAAEAGHIDIVKELIKWRAAIVVNGHGMTPLKVAAESCKADVVELLLSHADCDRRSRIEALELLGASFANDRENYDINKTYHYLYLAMEERFQDGDNILEKEVLPPIHAYGNRTECRNPQELESIRQDDDALHMEGLIVRERILGADNIDVSHPIIYRGAVYADNMEFEQCIKLWLHALHLRQKGNRNTHKDLLRFAQVFSQMIHLNETVKAPDIECVLRCSVLEIEQSMNRVKNISDADVHNAMDNYECNLYTFLYLVCISTKTQCSEEDQCKINKQIYNLIHLDPRTREGFTLLHLAVNSNTPVDDFHTNDVCSFPNALVTKLLLDCGAEVNAVDNEGNSALHIIVQYNRPISDFLTLHSIIISLVEAGAHTDMTNKQNKTPLDKSTTGVSEILLKTQMKMSLKCLAARAVRANDINYQDQIPRTLEEFVGFH
B2: FEM1B‐10: FEM1B construct, mutations L4E, L18E, L24S, I270N, L281E (protein, UniProt Q9UK73 1-627, looked up, variant L4E L18E L24S I270N L281E)
Protein fem-1 homolog B: B1 Protein fem-1 homolog B with E21A, L24S, S25L, A84Y, D321R
B3: FEM1B‐5: FEM1B construct, mutations L4E, A21E, L18E, L25S (protein, UniProt Q9UK73 1-627, looked up, variant L4E A21E L18E L25S)
Protein fem-1 homolog B: B1 Protein fem-1 homolog B with A84Y, N270I, E281L, D321R
B4: FEM1B‐8: FEM1B construct, mutations L4E, A21E, L25S, I270N, L281E (protein, UniProt Q9UK73 1-627, looked up, variant L4E A21E L25S I270N L281E)
Protein fem-1 homolog B: B1 Protein fem-1 homolog B with E18L, A84Y, D321R
B5: FEM1B‐3: FEM1B construct, mutations L4E, L18E, L281E (protein, UniProt Q9UK73 1-627, looked up, variant L4E L18E L281E)
Protein fem-1 homolog B: B1 Protein fem-1 homolog B with E21A, S25L, A84Y, N270I, D321R
B6: FEM1B‐4: FEM1B construct, mutations L4E, L18E, L281E, R321D (protein, UniProt Q9UK73 1-627, looked up, variant L4E L18E L281E R321D)
Protein fem-1 homolog B: B1 Protein fem-1 homolog B with E21A, S25L, A84Y, N270I
B7: FEM1B‐7: FEM1B construct, mutations L4E, L18E, L25S, L281E, R321D (protein, UniProt Q9UK73 1-627, looked up, variant L4E L18E L25S L281E R321D)
Protein fem-1 homolog B: B1 Protein fem-1 homolog B with E21A, A84Y, N270I
B8: FEM1B‐9: FEM1B construct, mutations L4E, A21E, L25S, L281E, R321D (protein, UniProt Q9UK73 1-627, looked up, variant L4E A21E L25S L281E R321D)
Protein fem-1 homolog B: B1 Protein fem-1 homolog B with E18L, A84Y, N270I
B9: FEM1B‐6: FEM1B construct, mutations Y84A, I270N, L281E, R321D (protein, UniProt Q9UK73 1-627, looked up, variant Y84A I270N L281E R321D)
Protein fem-1 homolog B: B1 Protein fem-1 homolog B with E4L, E18L, E21A, S25L
B10: FEM1B WT: substrate binding domain of FEM1B (residues 1–356), wild type (protein, UniProt Q9UK73 1-356, looked up, fragment)
chain: MEGLAGYVYKAASEGKVLTLAALLLNRSESDIRYLLGYVSQQGGQRSTPLIIAARNGHAKVVRLLLEHYRVQTQQTGTVRFDGYVIDGATALWCAAGAGHFEVVKLLVSHGANVNHTTVTNSTPLRAACFDGRLDIVKYLVENNANISIANKYDNTCLMIAAYKGHTDVVRYLLEQRADPNAKAHCGATALHFAAEAGHIDIVKELIKWRAAIVVNGHGMTPLKVAAESCKADVVELLLSHADCDRRSRIEALELLGASFANDRENYDIIKTYHYLYLAMLERFQDGDNILEKEVLPPIHAYGNRTECRNPQELESIRQDRDALHMEGLIVRERILGADNIDVSHPIIYRGAVYAD
modifications: substrate binding domain

Experiments:
[1] = stability of construct at room temperature; assay type: physicochemical
Excerpt: Two FEM1B constructs (FEM1B‐1 and FEM1B‐2) were designed to remove free cysteines on the exterior of the protein to prevent disulfide bond formation and prevent aggregation. FEM1B‐3 to FEM1B‐11 were designed to modify hydrophobic residues on the protein surface and reduce the predicted pI away from the pH needed for the experiment. To accomplish this, residues such as Leu, Ile, Val, or Arg were mutated to negatively charged residues (Asp or Glu) to shift the pI to be more acidic. Hydrophobic residues on the surface of the protein were chosen for mutation to also reduce solvent‐exposed hydrophobic patches that may be contributing to the aggregation (Figure S1, Supporting Information).

[2] = thermal shift assay of FEM1B constructs; assay type: physicochemical; details: average of three replicates
Protocol: The substrate binding domain of FEM1B (residues 1–356, ~42 kDa molecular weight) was prepared for NMR‐based screening. However, this construct (FEM1B WT) was prone to aggregation and was not suitable for the NMR experiments. […] To reduce the potential for aggregation, we prepared several mutants of FEM1B constructs and evaluated their stability using a thermal shift assay (Table 1).

Row | Molecule | stable at room temperature [1] | Tm ± SD [2]
1 | B1 | over 24 h | 48.6 ± 1.7 °C
2 | B2 | – | 36.3 ± 0.1 °C
3 | B3 | – | 38.8 ± 0.3 °C
4 | B4 | – | 34.5 ± 0.2 °C
5 | B5 | – | 35.0 ± 0.5 °C
6 | B6 | – | 35.0 ± 0.5 °C
7 | B7 | – | 28.7 ± 1.4 °C
8 | B8 | – | 28.5 ± 1.3 °C
9 | B9 | – | 37.3 ± 0.04 °C
10 | B10 | – | 35.6 °C and 35.6 ± 0.5 °C
